According to the Immune Epitope Database (IEDB):

What was measured:
Assay in all cases: IEDB peptide-MHC binding, purified MHC/competitive/radioactivity; filed as Kd, often an IC50 or EC50 that approximates it; ≥ and ≤ were set here for values at or beyond the usual limits of such assays
HLA-A*02:02 = target: HLA-A*02:02
HLA-A*02:03 = target: HLA-A*02:03
HLA-A*02:06 = target: HLA-A*02:06
HLA-A*03:01 = target: HLA-A*03:01
HLA-A*11:01 = target: HLA-A*11:01
HLA-A*31:01 = target: HLA-A*31:01
HLA-A*33:01 = target: HLA-A*33:01
HLA-A*68:01 = target: HLA-A*68:01
[1] = source organism: Vaccinia virus WR
[2] = source organism: Mammarenavirus guanaritoense
[3] = source organism: SARS coronavirus Tor2
[4] = source organism: Mammarenavirus whitewaterense
[5] = source organism: Mammarenavirus choriomeningitidis

Row | Sequence | Kd (HLA-A*02:02; [1]) | Kd (HLA-A*02:03; [1]) | Kd (HLA-A*02:06; [1]) | further results
1 | AAAKTPVIV | 1900 nM | 1420 nM | ≥ 66800 nM | 
2 | ALEQYGIENT | 3150 nM | 2160 nM | 1270 nM | 
3 | CIVAAVIIMA | 1130 nM | 619 nM | 733 nM | 
4 | CNYTRFWYI |  |  |  | Kd (HLA-A*02:02; [2]): 10100 nM; Kd (HLA-A*02:03; [2]): 5310 nM; Kd (HLA-A*02:06; [2]): 257 nM
5 | CVRNLEELTT | 12600 nM | 15200 nM | ≥ 42800 nM | 
6 | DISVNASKTI | ≥ 46800 nM | 11900 nM | ≥ 69800 nM | 
7 | DIVSDSKKIM | ≥ 25100 nM | ≥ 57200 nM | ≥ 69800 nM | 
8 | DTGKKELALT | 1040 nM | 262 nM | 6800 nM | 
9 | DTLVKSGLT | 1950 nM | 2880 nM | ≥ 52700 nM | 
10 | DVKVLAARL | 6230 nM | 10700 nM | 9990 nM | 
11 | EAFETQSGA | ≥ 77800 nM | ≥ 78100 nM | ≥ 49700 nM | 
12 | EIITGNKVKT | ≥ 70000 nM | ≥ 70400 nM | ≥ 69800 nM | 
13 | EVRYIDITNI | 12900 nM | 5810 nM | 4340 nM | 
14 | FLPSDFFPSV |  |  |  | Kd (HLA-A*02:02; source organism: Hepatitis B virus): 2 nM
15 | FLWLLWPVTL |  |  |  | Kd (HLA-A*02:02; [3]): 2.67 nM; Kd (HLA-A*02:03; [3]): 14 nM; Kd (HLA-A*02:06; [3]): 28.4 nM
16 | FVKENERVNV | 186 nM | 11.8 nM | 683 nM | 
17 | FVMCLEAKT | 609 nM | 1940 nM | 979 nM | 
18 | GLFTSLGKAV |  |  |  | Kd (HLA-A*02:03; source organism: Dengue virus 4 Dominica/814669/1981): 18.7 nM
19 | GLLQFIVFL |  |  |  | Kd (HLA-A*02:02; [4]): 0.6 nM; Kd (HLA-A*02:03; [4]): 7710 nM; Kd (HLA-A*02:06; [4]): 12.4 nM
20 | GLYIPGTSVI | 92.1 nM | 0.189 nM | 3620 nM | 
21 | GMSKEPGVV |  |  |  | Kd (HLA-A*02:03; source organism: Dengue virus 3 Martinique/1243/1999): 41.7 nM
22 | GTGILFMEM | 2200 nM | 7730 nM | 9980 nM | 
23 | GVCYYLLMHL | 95.8 nM | 63.8 nM | 128 nM | 
24 | GVLHTKFWI | 16600 nM | 12300 nM | 417 nM | 
25 | IAVITETIPI | 515 nM | 31.9 nM | 1.04 nM | 
26 | IIPFIAYFVL | 715 nM | 4730 nM | 852 nM | 
27 | ILFLTLIVFT |  |  |  | Kd (HLA-A*02:02; [3]): 23.6 nM; Kd (HLA-A*02:03; [3]): 1070 nM; Kd (HLA-A*02:06; [3]): 703 nM

Row | Sequence | Kd (HLA-A*02:02; [1]) | Kd (HLA-A*02:03; [1]) | Kd (HLA-A*02:06; [1]) | further results
28 | ITETIPIGM | 12400 nM | ≥ 42800 nM | 7690 nM | 
29 | KINEMVDELV | 587 nM | 492 nM | 3050 nM | 
30 | KTIAVSVYGA | 366 nM | 224 nM | 427 nM | 
31 | LIVAALVFL |  |  |  | Kd (HLA-A*02:02; [3]): 9.38 nM; Kd (HLA-A*02:03; [3]): 136 nM; Kd (HLA-A*02:06; [3]): 10.5 nM
32 | LIYRQLTSNV | 78.7 nM | 7.49 nM | 169 nM | 
33 | LLTIGLSLV |  |  |  | Kd (HLA-A*02:03; source organism: Dengue virus 1 Brazil/97-11/1997): 4.99 nM
34 | LLVAAGMEA |  |  |  | Kd (HLA-A*02:02; [3]): 17.4 nM; Kd (HLA-A*02:03; [3]): 16.6 nM; Kd (HLA-A*02:06; [3]): 117 nM
35 | LMGHFSWWTA |  |  |  | Kd (HLA-A*02:02; [3]): 19.2 nM; Kd (HLA-A*02:03; [3]): 135 nM; Kd (HLA-A*02:06; [3]): 97.4 nM
36 | LNQTVYSLV |  |  |  | Kd (HLA-A*02:02; [5]): 3330 nM; Kd (HLA-A*02:03; [5]): 1500 nM; Kd (HLA-A*02:06; [5]): 5100 nM
37 | LTQVKELGIA | 11800 nM | 150 nM | 18.1 nM | 
38 | LVFLILCFT |  |  |  | Kd (HLA-A*02:02; [3]): 2490 nM; Kd (HLA-A*02:03; [3]): 1850 nM; Kd (HLA-A*02:06; [3]): 1370 nM
39 | LVKDESIQL | 122 nM | 649 nM | 1400 nM | 
40 | MQKFTILEYL | 164 nM | 279 nM | 909 nM | 
41 | NILMDSIFV | 252 nM | 223 nM | 170 nM | 
42 | NLCKYLRGHT | ≥ 39600 nM | 8040 nM | ≥ 69800 nM | 
43 | NLVQYRILPM | 3990 nM | 1330 nM | ≥ 24500 nM | 
44 | NVSGVPHSV | 825 nM | 24 nM | 278 nM | 
45 | PTDMLKLFT | ≥ 29100 nM | ≥ 47000 nM | ≥ 69200 nM | 
46 | QIGGEAIFLI | 8.19 nM | 0.201 nM | 14.8 nM | 
47 | QVLQQNNSFI | 544 nM | 3180 nM | 2320 nM | 
48 | RAFIYSIMET | 81.4 nM | 69.7 nM | 578 nM | 
49 | RILGAGCFV |  |  |  | Kd (HLA-A*02:02; [3]): 24.4 nM; Kd (HLA-A*02:03; [3]): 53.3 nM; Kd (HLA-A*02:06; [3]): 38 nM
50 | RIQRRDDVDR |  |  |  | Kd (HLA-A*03:01; [1]): ≥ 70100 nM; Kd (HLA-A*11:01; [1]): ≥ 69800 nM; Kd (HLA-A*31:01; [1]): 78.5 nM; Kd (HLA-A*33:01; [1]): 17600 nM; Kd (HLA-A*68:01; [1]): ≥ 42500 nM
51 | RVDIYYNGNK |  |  |  | Kd (HLA-A*03:01; [1]): 45.6 nM; Kd (HLA-A*11:01; [1]): 4.86 nM; Kd (HLA-A*31:01; [1]): 5360 nM; Kd (HLA-A*33:01; [1]): ≥ 53600 nM; Kd (HLA-A*68:01; [1]): 120 nM
52 | SAVFKDSFL | 231 nM | 536 nM | 1140 nM | 
53 | SFYYIWKSY |  |  |  | Kd (HLA-A*03:01; [3]): 5150 nM; Kd (HLA-A*11:01; [3]): 6730 nM; Kd (HLA-A*31:01; [3]): 68.1 nM; Kd (HLA-A*33:01; [3]): 779 nM; Kd (HLA-A*68:01; [3]): 447 nM
